The assay has as its target pyruvate kinase M2 (mouse (endogenous in RAW264.7)) (UniProt P52480). In words: cross-linking; RAW264.7 macrophages treated with 15KPF, lysed, lysate incubated with 2.5 mM disuccinimidyl suberate for 30 min; 10% SDS-PAGE and PKM2 immunoblot. (In general: A western blot detects proteins with antibodies after separation by electrophoresis.)

Values joined by “and” are separate entries in the source; they are usually repeats but may differ in a detail not shown here. Equal entries are not always repeated.

pyruvate kinase M2, P52480 1-531 (enzyme; other documents disagree on this pair), sequence (P52480 whole entry): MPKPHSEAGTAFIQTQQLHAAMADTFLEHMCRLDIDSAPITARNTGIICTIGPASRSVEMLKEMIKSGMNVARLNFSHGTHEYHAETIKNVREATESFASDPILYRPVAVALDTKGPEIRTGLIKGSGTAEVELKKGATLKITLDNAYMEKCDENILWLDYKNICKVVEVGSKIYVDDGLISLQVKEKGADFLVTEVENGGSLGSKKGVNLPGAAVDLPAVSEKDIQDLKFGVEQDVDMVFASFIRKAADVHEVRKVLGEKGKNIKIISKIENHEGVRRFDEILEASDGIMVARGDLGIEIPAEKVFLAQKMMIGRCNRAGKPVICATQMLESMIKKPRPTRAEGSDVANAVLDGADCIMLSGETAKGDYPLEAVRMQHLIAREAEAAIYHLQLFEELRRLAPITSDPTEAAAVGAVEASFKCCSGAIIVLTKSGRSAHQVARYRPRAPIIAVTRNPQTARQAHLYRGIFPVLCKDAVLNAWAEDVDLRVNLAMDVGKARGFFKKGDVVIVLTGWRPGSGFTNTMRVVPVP

Take “pyruvate kinase M2, P52480 1-531 (enzyme; other documents disagree on this pair)”: the stoichiometry N (usually the number of molecules, sites or subunits per partner or assembly) is 4 and 2.

The values are drawn from PMC12781075, “Crosstalk between arachidonic acid metabolism and glycolysis drives integrated metabolic-inflammatory reprogramming in macrophages” (International Journal of Biological Sciences, 2026).
